Assay results published in the RNAGym collection of RNA variant scans (doi:10.1073/pnas.2313332121).
Variants at the floor of the assay were thinned out.

B1: TPR 5TU (parent)
chain: GGAUCUUCUCGAUCUAACAAAAAAGACAAAUCUGCCACAAAGCUUGAGAGCAUCUUCGGAUGCAGAGGCGGCAGCCUUCGGUGGCGCGAUAGCGCCAACGUUCUCAACUAUGACACGCAAAACGCGUGCUCCGUUGAAUGGAGUUUAUCAUG

Variants of: B1
Test: polymerase ribozyme fitness, log enrichment relative to wild type (log ratio); higher = more active; in vitro selection for triplet polymerase activity
In short: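 Frozen incubation at −7 °C formed the core of a single, triplicate in vitro selection round applied to PCR-built, transcribed mutant libraries of each subunit of a heterodimeric triplet polymerase ribozyme. Extended constructs were gel-excised, captured with streptavidin beads and amplified by RT-PCR, and input and output libraries were Illumina-sequenced with a filter of ≥10 input reads and ≥1 read per output. Fitness is the logarithm of genotype enrichment relative to wild-type enrichment, with inverse-variance-weighted replicate averaging, and the logarithm is base 2.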

Compared with GGAUCUUCUCGAUGUAACAAAAAAGACAUAUCUGCCACAAAGCUUGAGAGCAUCUUCGGAUGCAGAGGCGGCAGCCUUCGGUGGCGCGAUAGCGCCAACGUUCUCAACUAUGACACGCAAAACGCGUGCUCCGUUGAAUGGAGUUUAUCAUG [C14G A29U], GGAUCUUCUCGAUCUAACAAAAAAGACAAAUCUGCCACAAAGCUUGAGAGCAUCUUCGGAUGCAGAGGCGGCAGCCUUCGGGGGCGCGAUAGCGCCAACGUUCUCUACUAUGACACGUAAAACGCGUGCUCCGUUGAAUGGAGUUUAUCAUG [U82G A106U C118U] is higher in “polymerase ribozyme fitness (log ratio)” value: -3.98 for the first, -0.65 for the second.

GGAUAUUCUCGAUCUAACAAAAAAGACAAAUCUGCCACUAAGCUUGAGAGCAUCUUCGGAUGCAGAGGCGGCAGCCUUCGGUGGUGCGAGAGCGCCAACGUUCUCAACUAUGACACGUAAAACGUGUGCUCCGUUGAAUGGAGUUUAUCAUG [C5A A39U C85U U90G C118U C125U] and GGAUCUUCUCGAUGUAACAAAAAAGACAAAUCUGCCACAAAGCUUGAGAGCAUCUUCGGAUGCAGAGGCGGCAGCCUUCGGUGGCGCGAUAGCGCCAACUUUCUCAACUAUGACACGCAAAACGCGUGCUCCGUUGAAUGGAGUUUAUCAUG [C14G G100U] cannot be ordered by “polymerase ribozyme fitness (log ratio)” value: at most -4.2 for the first, at most -4.2 for the second.

Going from GGAUCUUCUCGAUCUAACAAGAGAGACAAAUCUGCCACAAAGCUUGAGAGCAUCUUCCAAUGCAGAGGCGGCAGCCUUCGGUGGGGCGAUAGCGCCAACGUUAUCAAUUAUGACACGCAAAACGCGUGCUCCGUUGAAUGGAGUUUAUCAUG [A21G A23G G58C G59A C85G C103A C108U] to GGAUCUUCUCGAUCUAACAAAAAAGACAAAUCUGCCACAAAGCUUGAGAGCAUCUUCGGAUGCAGAGGCGGCAGCCUUCGGUGGCGUGAUAGCGCCAACGUUCUCAACGAUGACACGCAAAACGCGCGCUCCGUAGAAUGGAGUUUAUCAUG [C87U U109G U127C U135A], the “polymerase ribozyme fitness (log ratio)” value rises from at most -4.2 to -4.

GGAUCUUCUCGAUCUAACAAAAAAGACAAAUCUUCCACAAUGCUUGAGAGCAUCUUCGGAUGCAGAGGCGGCAGCCUUCGGUGACGCGAUAGCGCCAACGUUCUCAACUAUGACACGCAAAACGCGUGCUCCGUUGAAUGGAGUCUAUCAUG [G34U A41U G84A U145C] and GGAUCUUCUCGAUCUAACAAAAAAGACAAAUCUGCCACAAAGCUUGAGAGCAUCUUCGGAUGCAGAGGCGGCAGCCUUCGGUGGCGCGAUAGCGCUAACGUUCUCAACUAUGACACGCAAAACGCGUGCUCCGUCGAAUUGAGUUUAUCAUG [C96U U135C G140U] are within 0.2 log units of each other in “polymerase ribozyme fitness (log ratio)” value: -3.69 for the first, -3.67 for the second.

First: GGAUCUUCUCGAUCUAACAAAGAAGACAAAUCUGCCACAAAGCUUGAGAGCAUCUUCGGAUGCAGAGGCGGCAGCCUUCGGUCGCGCGAUAGCGCCAACGUUCUCAACUAUGACACGCAAAACGCGUGCUCCGUUGAAUGGAGUUUAUCAUG [A22G G83C]
Second: GGAUCUUCUCGAUCUAACAAAAAAGACAAAUCUGCCACAAAGCUUGAGAGCAUCUUCGGAUGCAGAGGCGGCAGUCUUCGGUAGCGCGAUAGCGCCACCGUUCUCAACUAUGACACGCAAAACGCGUGCUCCGAAGAAUGGAGUUUAUCAUG [C75U G83A A98C U134A U135A]
The “polymerase ribozyme fitness (log ratio)” value of the first is higher: -0.878 for the first, -3.58 for the second.

Going from GGAUCUUCUCGAUCUAACAAAAAAGACAAAUCUGCCACAAAGCUUGAGGGCAUCUUCGGAUGCAGAGGCGACAGCCUUCGGUGGCGCGAUAGCGCCAACGUUCUCAACUAUGACACGCAAAACGCAUGCUCCGUUGAAUGGAGUUUAUCAUG [A49G G71A G126A] to GGAUCUUCUCGAUCUAACAAAAAAGACAAAUCUGCCACAAAGCUGGAGAGCAUCUUCGGAUGCAGAGGCGGCAGCCUUCGGUGGCGCGAUAGCGCCAACGUUCUCAACUAUGACACGCAAAACGCGUGCUCCGUUGAAUGGAGUUUAUCAUG [U45G], the “polymerase ribozyme fitness (log ratio)” value rises from at most -4.2 to -0.42.

First: GGAUCUACUCGAUCUAACAAAAAAGACAAAUCUGCCACAAAGCUUGAGAGCAUCUUCGGAUGCAGAGGCGGCAGCCUUCGGUGGCGCGAUAGUGCCAACGUUCUCAACUAUGACACGCAAAACGCGUGCUCCGUUGAAUGGAGUUUAUCAUG [U7A C93U]
Second: GGAUCUUCUCGAUCUAACAAAAAAGACAAAUCUGCCACAAAGCUUGACAACAUCUUCGGAUGCAGAGGCGGCAGCCUUCGUUGGCGCGAUAGCGACAACGUUCUCAACUAUGACACGCAAAACGCGUGCUCCGUUGAAUGGAGUUGAUCAUG [G48C G50A G81U C95A U146G]
The “polymerase ribozyme fitness (log ratio)” value of the first is lower: -3.98 for the first, -3.35 for the second.

Going from GGAUCUUCUCGAUCUAACAAAAAAGACAAAUCUGCCACAAAGCUUGAGAGCAUCUACGGAGGCAGAGGCGGCAGCCUUCGGUGGCGCCAUAGCGCCAACGUUCUCAACUAUGACACGCAAAACGCGUGCUCCGUUUAAUGGAGUUUAUCAUG [U56A U61G G88C G136U] to GGAUCUUCUCGAUCUAACAUAAAAGACAAAUCUGCCACAAAGCUUGAGAGCGUCUUCGGAUGCAGAGGCGGCAGCCUUCGGUGGCGCGAUAGCGCCAACGUUCUCAACUAUGACACGCAAAACGCGUGCUCCGUUGAAUGGAGUUUAUCAUG [A20U A52G], the “polymerase ribozyme fitness (log ratio)” value rises from at most -4.2 to -2.02.

First: GGAUCUUCUCGUUCUAACAAAAAAGACAAAUCUGCCACAAAGCUUGAGAGCAUCUUCGGAUGCAGAGGCGGCAGCCUUCGGUGUCGCGAUAGCGCCAACUUUCUCAACUAUGACACGCAAAACGCGUGCUCCGUUGAAUGGAGUUUAUCAUG [A12U G84U G100U]
Second: GGAUCUUCUCGAUCUAAGACAUAAGACAAAUCUGCCACAAAGCUUGAGAGCAUCGUCGGAUACAGAGGCGGCAGCCUUCGGUGGCGCGAUAGCGCCAACGUUCUCAACUAUGACACGCAAAACGCGUGCUCCGUUGAAUGGAGUUUAUCAUG [C18G A20C A22U U55G G62A]
The “polymerase ribozyme fitness (log ratio)” value of the first is lower: at most -4.2 for the first, -3.57 for the second.

For GGAUUUUCUCGAUCUAACGAGAAAGACAGAUCUGCCACAAAGCUUGAGAGCAUCUUCGGAUGCAGAGGCGGCAGCCUUCGGUGGCGGGAUAGCGGCAACGUUCUCAACUAUGACACGCAAAACGCGUGCUCCGUUGAAUGGAGUUUAUCAUG [C5U A19G A21G A29G C87G C95G], the “polymerase ribozyme fitness (log ratio)” value was at most -4.2.
